Measured values published in patent publication US20140322220A1 (Bayer, published 2014).
Where a chain is given by its changes, count along the chain named. Numbered stars: 1 amine (or outer) side, 2 acyl side, 3 side chain; on linkers, the order of the positions; unused ones are H or OH. Square brackets hold non-standard residues; d marks the D form. Ends that are not written are not given here. * marks the point of attachment. Biotin = O=C1N[C@H]2[C@H](CS[C@H]2CCCCC(=O)*)N1; Ttds = O=C(CCC(=O)[*:2])NCCCOCCOCCOCCCN[*:1]

B1: TPP-1398 (antibody, human IgG1, lambda, V domains shown)
VH: EVQLLESGGGLVQPGGSLRLSCAASGFTFSSYAMSWVRQAPGKGLEWVSAISRSGGSTYYADSVKGRFTISRDNSKNTLYLQMNSLRAEDTAVYYCARVRYIWNEGDWFDPWGQGTLVTVSS
VL: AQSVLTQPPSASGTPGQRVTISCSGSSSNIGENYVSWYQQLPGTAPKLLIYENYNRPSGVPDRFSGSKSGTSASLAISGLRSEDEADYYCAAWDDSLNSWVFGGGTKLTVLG
notes: Matured variant of M048-D01
B2: TPP-1399 (antibody, human IgG1, lambda, V domains shown)
VH: B1 VH with R53K, Y59F, I102K, N104G
VL: AQSVLTQPPSASGTPGQRVTISCSGSSSNIGENYVSWYQQLPGTAPKLLIYENYKRPSGVPDRFSGSKSGTSASLAISGLRSEDEADYYCAAWDDSGNSWVFGGGTKLTVLG
notes: Matured variant of M048-D01
B3: TPP-1401 (antibody, human IgG1, lambda, V domains shown)
VH: B1 VH with R53K, Y59F
VL: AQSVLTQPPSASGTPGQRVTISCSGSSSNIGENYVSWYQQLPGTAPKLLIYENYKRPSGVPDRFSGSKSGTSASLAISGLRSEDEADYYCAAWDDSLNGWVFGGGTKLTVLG
notes: Matured variant of M048-D01
B4: TPP-1400 (antibody, human IgG1, lambda, V domains shown)
VH: B1 VH
VL: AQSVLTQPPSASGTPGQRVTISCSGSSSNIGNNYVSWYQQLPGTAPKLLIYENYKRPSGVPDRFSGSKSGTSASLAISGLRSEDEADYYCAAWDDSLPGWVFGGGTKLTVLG
notes: Matured variant of M048-D01
B5: TPP-1402 (antibody, human IgG1, lambda, V domains shown)
VH: B1 VH with R53K, Y59F, E105H
VL: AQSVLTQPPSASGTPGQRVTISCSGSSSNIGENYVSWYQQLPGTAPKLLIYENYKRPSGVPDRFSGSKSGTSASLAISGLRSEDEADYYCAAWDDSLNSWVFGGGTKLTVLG
notes: Matured variant of M048-D01
B6: M054-D03-hIgG1 (antibody, V domains shown)
VH: EVQLLESGGGLVQPGGSLRLSCAASGFTFSNYGMHWVRQAPGKGLEWVAVISYDGSNKYYADSVKGRFTISRDNSKNTLYLQMNSLRAEDTAVYYCAKETNDVPFDYWGQGTLVTVSS
VL: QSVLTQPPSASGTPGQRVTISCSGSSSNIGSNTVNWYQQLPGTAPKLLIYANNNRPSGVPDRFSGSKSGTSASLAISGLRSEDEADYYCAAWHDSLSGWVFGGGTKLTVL
notes: Human IgG1
B7: M054-D03 (soluble Fab) (Fab, V domains shown)
VH: B6 VH
VL: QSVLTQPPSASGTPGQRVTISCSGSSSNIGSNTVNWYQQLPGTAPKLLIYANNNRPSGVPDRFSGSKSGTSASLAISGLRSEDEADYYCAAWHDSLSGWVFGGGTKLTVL
notes: Soluble Fab from E. coli, purified through its His-tag
B8: M047-D08 (soluble Fab) (Fab, V domains shown)
VH: B6 VH with S30R, N31T, Y32S, K98R, T100S, N101P, D102G, V103Y, P104D, D106E
VL: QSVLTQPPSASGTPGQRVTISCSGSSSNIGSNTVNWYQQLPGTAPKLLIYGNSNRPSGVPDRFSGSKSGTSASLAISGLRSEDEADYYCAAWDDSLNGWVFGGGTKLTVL
notes: as for B7

How the values were obtained:
[1] = target: T1, recombinant human FGFR2 (Met 1-Glu 377) with C-terminal polyhistidine tag (human, UniProt P21802 22-377); assay: protein binding ELISA; against TPP-1403
T1 construct: The range is that of the expressed DNA and begins at Met 1; also called His-tagged FGFR2; recombinant human FGFR2-IIIc molecule
Excerpt: (§1) Two different types of ELISA were used to determine the binding improvement of mutated variants: a) Peptide Binding ELISA: a synthetic peptide comprising the amino acid sequence of the epitope linked C-terminally to a biotinylated lysine […]-Ttds-Lys(Biotin) (peptide sequence derived from SEQ ID NO:63, synthesized by JPT Peptide Technology GmbH, Berlin, Germany), and b) Recombinant Protein Binding ELISA: recombinant human FGFR2 (DNA sequence of human FGFR2 (NP 000132.3) Met 1-Glu 377, fused with a polyhistidine tag at the C-terminus; #10824-1-1081-1, Sin θ Biological Inc., Beijing, China).
(§2) Briefly, in both ELISA formats MTP plates (384 well Maxisorp, Nunc) were coated with 20 μl, anti-human IgG Fc specific (#12136; sigma) at 2.2 μg/ml for 2.5 h at 37° C. in coating buffer (#121125 Candor Bioscience GmbH). […] Anti-FGFR2 variants were immobilized in concentrations of 0.035 μg/ml (peptide based assay) or 0.2 μg/ml (recombinant human FGFR2 protein based assay) in 10% Smart Block in PBST depending on the format and variants to be analyzed by incubation of 20 μl for one hour at 20-22° C. After one washing step using 50 μl PBST, 20 μl quadruplets of the antigen dilution series in 10% SmartBlock in PBST with a maximum concentration of 100 nM were added and incubated for 1 h at 20-22° C. and the washing step was repeated 3 times. For the detection of the biotinylated epitope peptide 20 μl of streptavidine/POD conjugate (# S5512, Sigma) in a 1:1000 dilution in 10% SmartBlock in PBST were applied for one hour at 20-22° C. For the detection of the recombinant FGFR2 protein 20 μl of anti-His/HRP conjugate (#71840, novagen) in a 1:10000 dilution in 10% SmartBlock in PBST were applied for one hour at 20-22° C. After 3 washing steps 20 μl of 10 μM amplex red substrate (# A12222, Invitrogen) in 50 mM Sodium hydrogen phosphate, pH 7.6, were added and the fluorescence signal was detected using a common fluorescence reader, e.g. Tecan M1000. EC50 values were evaluated by fitting the data (Sigmoida) dose-response, variable slope, bottom set to background; GraphPad Prism software).

[2] = target: T1, recombinant human FGFR2 (Met 1-Glu 377) …; assay: protein binding ELISA, antibody captured by anti-human IgG Fc, FGFR2-His titrated
Excerpt: as §1, §2

[3] = target: T2, RPSFSLVEDTTLEPEG-Ttds-Lys(Biotin) (human); assay: peptide binding ELISA; against TPP-1403
T2 construct: Synthesized by JPT Peptide Technology
T2 peptide: RPSFSLVEDTTLEPEG[Ttds]K(Biotin)
Excerpt: as §1, §2

[4] = target: T2, RPSFSLVEDTTLEPEG-Ttds-Lys(Biotin); assay: peptide binding ELISA, antibody captured by anti-human IgG Fc, biotinylated peptide titrated
Excerpt: as §1, §2

[5] = target: T3, mutated human FGFR2 on MFE-296 cells (human, UniProt P21802 22-821); assay: FACS, 5 ug/ml, MFE296 cells
T3 construct: whole, on cells
Method: (§3) To determine the binding characteristics of the anti-FGFR2 antibodies on mouse, rat and human cancer cell lines, binding was tested by flow cytometry to a panel of cell lines. Adherent cells were washed twice with PBS (without Ca and Mg) and detached by enzyme-free PBS based cell dissociation buffer (Invitrogen). Cells were suspended at approximately 10⁵ cells/well in FACS buffer (PBS without Ca/Mg, Biochrom containing 3% FCS, Biochrom). Cells were centrifuged (250 g, 5 min, 4° C.) and supernatant discarded. Cell were resuspended in dilutions of the antibodies of interest (5 μg/ml in 80 μl if not indicated otherwise) in FACS buffer, and incubated on ice for 1 h. […] After incubation for 1 h on ice cells were again washed with cold FACS buffer, resuspended in 100 μl FACS buffer and analyzed by flow cytometry using a FACS-Array (BD Biosciences). Results are calculated as Geo Mean of the detection by the antibody of interest subtracted by background fluorescence as measured by detection with the secondary antibody alone.

[6] = target: T4, rat FGFR2 on RUCA cells (rat, UniProt F1LNW0 41-840); assay: FACS, 5 ug/ml, RUCA cells
T4 construct: whole, on cells
Method: as §3

[7] = target: T5, hFGFR2β-Fc (IIIb) (human, UniProt P21802 22-377, biotinylated with biotin-LC-NHS); assay: ELISA, 1 ug/ml Fab on coated antigen; grade of signal to background (+ 2-3, ++ 3-5, +++ >5)
T5 construct: also called FGFR2-2β Fc (IIIb)
T5 chain: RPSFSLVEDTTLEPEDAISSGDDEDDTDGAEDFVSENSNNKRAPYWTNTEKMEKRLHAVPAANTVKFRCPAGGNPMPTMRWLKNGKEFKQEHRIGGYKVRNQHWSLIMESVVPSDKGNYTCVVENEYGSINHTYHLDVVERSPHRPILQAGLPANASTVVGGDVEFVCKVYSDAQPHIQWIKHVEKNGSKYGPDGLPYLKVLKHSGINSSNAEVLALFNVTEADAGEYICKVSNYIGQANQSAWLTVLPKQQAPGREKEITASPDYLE
Method: (§4) For the ELISA 96-well plates pre-coated with streptavidin (Pierce, 15500) were coated over night at 4° C. with 1 μg/ml biotinylated protein. Wells coated with biotinylated TRAIL-Fc served as a reference. The next day plates were washed 3 times with PBST, treated with blocking reagent, and washed again 3 times with PBST. 100 μl of purified Fabs (1 μg/ml) were added and incubated for 1 h at r.t. After washing 3 times with PBST, an anti-hIgG (Fab-specific) coupled to HRP (1:2500 diluted; Sigma; A 0293) was added and incubated for 1 h at Lt. Color reaction was developed by addition of 50 μl TMB (Invitrogen, 2023) and stopped after 5-15 min by adding 50 μl H₂SO₄ (Merck, 1120801000). Colorimetric reaction was recorded at […] in a plate reader (Tecan). Wells containing TRAIL-Fc were used as background values and the signal to background ratios were calculated as summarized in Table 4.

[8] = target: T6, hFGFR2α-Fc (IIIb) (human, UniProt P21802 22-377, biotinylated with biotin-LC-NHS); assay: as above
T6 construct: Bought, R&D Systems 663-FR, soluble Fc fusion
T6 chain: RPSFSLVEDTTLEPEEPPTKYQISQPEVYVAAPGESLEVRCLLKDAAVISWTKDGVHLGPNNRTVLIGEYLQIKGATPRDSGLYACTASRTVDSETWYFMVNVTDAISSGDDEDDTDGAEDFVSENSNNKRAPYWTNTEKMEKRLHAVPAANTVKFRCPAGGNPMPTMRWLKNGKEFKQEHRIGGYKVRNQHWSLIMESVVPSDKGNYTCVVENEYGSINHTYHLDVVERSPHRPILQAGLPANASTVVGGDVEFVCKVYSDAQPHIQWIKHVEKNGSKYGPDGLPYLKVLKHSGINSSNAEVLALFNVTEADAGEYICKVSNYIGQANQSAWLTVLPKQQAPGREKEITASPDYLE
Method: as §4

[9] = target: T7, mFGFR2β-Fc (IIIb) (murine, UniProt P21803-2 22-263, limits assumed, biotinylated with biotin-LC-NHS); assay: as above
T7 construct: Bought, R&D Systems 708-MF
Method: as §4

[10] = target: T8, hFGFR4-Fc (human, UniProt P22455 22-369, biotinylated with biotin-LC-NHS); assay: ELISA on coated biotinylated Fc fusion
T8 construct: Bought, R&D Systems, printed Cat. No. 685-MF
T8 sequence (looked up): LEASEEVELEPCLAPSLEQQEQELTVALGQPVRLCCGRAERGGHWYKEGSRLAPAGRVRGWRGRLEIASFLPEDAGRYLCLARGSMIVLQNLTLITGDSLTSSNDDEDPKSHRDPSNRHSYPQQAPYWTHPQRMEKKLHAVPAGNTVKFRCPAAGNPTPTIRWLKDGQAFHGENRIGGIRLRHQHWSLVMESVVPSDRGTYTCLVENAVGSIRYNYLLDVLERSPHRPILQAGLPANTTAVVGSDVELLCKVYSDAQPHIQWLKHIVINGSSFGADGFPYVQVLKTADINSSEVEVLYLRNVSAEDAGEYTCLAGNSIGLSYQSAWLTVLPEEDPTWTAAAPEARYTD
Method: as §4

[11] = target: T9, hFGFR1β-Fc (IIIc) (human, UniProt P11362-14 22-285, limits assumed, biotinylated with biotin-LC-NHS); assay: ELISA on coated biotinylated Fc fusion
T9 construct: Bought, R&D Systems 661-FR
T9 sequence (looked up): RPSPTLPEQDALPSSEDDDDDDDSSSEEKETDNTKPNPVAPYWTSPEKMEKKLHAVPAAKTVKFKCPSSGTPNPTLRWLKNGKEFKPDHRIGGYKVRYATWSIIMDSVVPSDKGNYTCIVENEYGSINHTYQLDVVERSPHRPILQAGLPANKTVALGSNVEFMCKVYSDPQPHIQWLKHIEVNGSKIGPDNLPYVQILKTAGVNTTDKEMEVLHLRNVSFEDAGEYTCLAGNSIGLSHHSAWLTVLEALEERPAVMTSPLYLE
Method: as §4

[12] = target: T10, hFGFR3-Fc (IIIb) (human, UniProt P22607-2 23-377, biotinylated with biotin-LC-NHS); assay: ELISA on coated biotinylated Fc fusion
T10 construct: Bought, R&D Systems 1264-FR
T10 sequence (looked up): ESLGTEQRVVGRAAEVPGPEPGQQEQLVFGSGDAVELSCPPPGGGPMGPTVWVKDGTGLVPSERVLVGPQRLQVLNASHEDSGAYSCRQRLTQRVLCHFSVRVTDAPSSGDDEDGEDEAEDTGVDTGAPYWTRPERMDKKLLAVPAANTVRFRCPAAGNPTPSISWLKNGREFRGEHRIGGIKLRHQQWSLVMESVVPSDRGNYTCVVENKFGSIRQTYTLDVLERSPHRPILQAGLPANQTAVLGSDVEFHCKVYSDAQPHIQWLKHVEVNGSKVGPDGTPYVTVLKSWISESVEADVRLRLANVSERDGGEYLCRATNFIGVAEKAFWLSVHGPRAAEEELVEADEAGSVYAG
Method: as §4

T7 sequence (P21803 other isoform, or with tags, fused parts or gaps limits assumed): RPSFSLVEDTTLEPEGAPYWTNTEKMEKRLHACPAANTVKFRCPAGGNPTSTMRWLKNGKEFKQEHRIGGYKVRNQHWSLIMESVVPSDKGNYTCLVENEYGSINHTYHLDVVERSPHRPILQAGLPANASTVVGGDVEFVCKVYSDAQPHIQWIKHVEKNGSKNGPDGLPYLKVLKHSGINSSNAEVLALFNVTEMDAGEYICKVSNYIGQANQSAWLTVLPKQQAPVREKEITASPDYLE
T3 sequence (P21802 other isoform, or with tags, fused parts or gaps limits assumed, change not shown): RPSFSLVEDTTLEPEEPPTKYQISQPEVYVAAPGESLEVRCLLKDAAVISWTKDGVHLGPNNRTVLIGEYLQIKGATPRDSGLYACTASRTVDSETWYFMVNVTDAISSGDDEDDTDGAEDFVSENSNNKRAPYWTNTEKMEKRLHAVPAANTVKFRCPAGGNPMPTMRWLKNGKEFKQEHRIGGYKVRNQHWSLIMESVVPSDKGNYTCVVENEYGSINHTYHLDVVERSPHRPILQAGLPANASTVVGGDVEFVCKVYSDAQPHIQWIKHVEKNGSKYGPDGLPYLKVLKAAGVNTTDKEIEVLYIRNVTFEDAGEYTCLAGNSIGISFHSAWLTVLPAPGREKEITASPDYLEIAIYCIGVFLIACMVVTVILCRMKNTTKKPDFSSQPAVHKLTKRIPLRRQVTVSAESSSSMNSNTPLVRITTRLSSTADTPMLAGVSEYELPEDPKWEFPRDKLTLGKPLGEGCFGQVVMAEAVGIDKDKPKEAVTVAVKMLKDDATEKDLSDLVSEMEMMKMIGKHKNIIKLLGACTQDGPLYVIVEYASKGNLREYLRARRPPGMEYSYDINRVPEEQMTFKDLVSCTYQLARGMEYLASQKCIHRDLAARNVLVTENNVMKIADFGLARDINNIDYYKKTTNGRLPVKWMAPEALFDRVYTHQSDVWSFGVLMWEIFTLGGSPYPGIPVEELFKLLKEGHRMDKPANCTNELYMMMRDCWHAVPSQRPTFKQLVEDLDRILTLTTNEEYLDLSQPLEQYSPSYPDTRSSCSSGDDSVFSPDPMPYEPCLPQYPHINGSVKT

Binder | fold EC50 reduction [1] [fold] | EC50 [2] [nM] | fold EC50 reduction [3] [fold] | EC50 [4] [nM] | Geo Mean minus Geo Mean of secondary antibody alone (FACS) [5] [geomean] | Geo Mean minus Geo Mean of secondary antibody alone (FACS) [6] [geomean] | ELISA signal to background ratio [7] [ratio] | ELISA signal to background ratio [8] [ratio] | ELISA signal to background ratio [9] [ratio] | binding result [10] | binding result [11] | binding result [12]
B1 | 39 | 0.2 | > 2000 | 0.005 | – | – | – | – | – | – | – | –
B2 | 39 | 0.21 | > 1500 | 0.006 | – | – | – | – | – | – | – | –
B3 | 39 | 0.2 | > 1700 | 0.006 | – | – | – | – | – | – | – | –
B4 | 17 | 0.48 | > 1100 | 0.009 | – | – | – | – | – | – | – | –
B5 | 37 | 0.22 | > 1500 | 0.007 | – | – | – | – | – | – | – | –
B6 | – | – | – | – | 100 to 1000 | 100 to 1000 | – | – | – | – | – | –
B7 | – | – | – | – | – | – | 2 to 3 | 3 to 5 | 3 to 5 | no binding | no binding | no binding
B8 | – | – | – | – | – | – | > 5 | > 5 | > 5 | no binding | no binding | no binding
